Data reported in publication PMC10540216, “Activity Guided Azide-methyllysine Photo-trapping for Substrate Profiling of Lysine Demethylases” (Journal of the American Chemical Society, 2023).

Test system: KDM4A-I71AzF
Test: CASI: photo-crosslinking with HEK293T cell extracts, StrepTactin enrichment and LC-MS/MS proteomics;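 note: lysates from HEK293T cells pretreated with a KDM4 inhibitor to raise proteome methylation, affinity-purified after ±UV, gel-resolved, trypsin-digested, with exclusive unique peptides per protein averaged per condition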
Assay type: binding, human
Conditions: sheet "Final results but with 0.01"

Row | Molecule | Fold change (+UV/-UV)
1 | ODBA_HUMAN (protein, UniProt P12694 46-445, looked up) 2-oxoisovalerate …: SSLDDKPQFPGASAEFIDKLEFIQPNVISGIPIYRVMDRQGQIINPSEDPHLPKEKVLKLYKSMTLLNTMDRILYESQRQGRISFYMTNYGEEGTHVGSAAALDNTDLVFGQYREAGVLMYRDYPLELFMAQCYGNISDLGKGRQMPVHYGCKERHFVTISSPLATQIPQAVGAAYAAKRANANRVVICYFGEGAASEGDAHAGFNFAATLECPIIFFCRNNGYAISTPTSEQYRGDGIAARGPGYGIMSIRVDGNDVFAVYNATKEARRRAVAENQPFLIEAMTYRIGHHSTSDDSSAYRSVDEVNYWDKQDHPISRLRHYLLSQGWWDEEQEKAWRKQSRRKVMEAFEQAERKPKPNPNLLFSDVYQEMPAQLRKQQESLARHLQTYGEHYPLDHFDK | 1
2 | PSPC1_HUMAN (protein, UniProt Q8WXF1 1-523, looked up) Paraspeckle component 1: MMLRGNLKQVRIEKNPARLRALESAVGESEPAAAAAMALALAGEPAPPAPAPPEDHPDEEMGFTIDIKSFLKPGEKTYTQRCRLFVGNLPTDITEEDFKRLFERYGEPSEVFINRDRGFGFIRLESRTLAEIAKAELDGTILKSRPLRIRFATHGAALTVKNLSPVVSNELLEQAFSQFGPVEKAVVVVDDRGRATGKGFVEFAAKPPARKALERCGDGAFLLTTTPRPVIVEPMEQFDDEDGLPEKLMQKTQQYHKEREQPPRFAQPGTFEFEYASRWKALDEMEKQQREQVDRNIREAKEKLEAEMEAARHEHQLMLMRQDLMRRQEELRRLEELRNQELQKRKQIQLRHEEEHRRREEEMIRHREQEELRRQQEGFKPNYMENREQEMRMGDMGPRGAINMGDAFSPAPAGNQGPPPMMGMNMNNRATIPGPPMGPGPAMGPEGAANMGTPMMPDNGAVHNDRFPQGPPSQMGSPMGSRTGSETPQAPMSGVGPVSGGPGGFGRGSQGGNFEGPNKRRRY | 1.667
3 | ASNS_HUMAN (protein, UniProt P08243 2-561, looked up) Asparagine synthetase …: CGIWALFGSDDCLSVQCLSAMKIAHRGPDAFRFENVNGYTNCCFGFHRLAVVDPLFGMQPIRVKKYPYLWLCYNGEIYNHKKMQQHFEFEYQTKVDGEIILHLYDKGGIEQTICMLDGVFAFVLLDTANKKVFLGRDTYGVRPLFKAMTEDGFLAVCSEAKGLVTLKHSATPFLKVEPFLPGHYEVLDLKPNGKVASVEMVKYHHCRDVPLHALYDNVEKLFPGFEIETVKNNLRILFNNAVKKRLMTDRRIGCLLSGGLDSSLVAATLLKQLKEAQVQYPLQTFAIGMEDSPDLLAARKVADHIGSEHYEVLFNSEEGIQALDEVIFSLETYDITTVRASVGMYLISKYIRKNTDSVVIFSGEGSDELTQGYIYFHKAPSPEKAEEESERLLRELYLFDVLRADRTTAAHGLELRVPFLDHRFSSYYLSLPPEMRIPKNGIEKHLLRETFEDSNLIPKEILWRPKEAFSDGITSVKNSWFKILQEYVEHQVDDAMMANAAQKFPFNTPKTKEGYYYRQVFERHYPGRADWLSHYWMPKWINATDPSARTLTHYKSAVKA | 2
4 | TCPD_HUMAN (protein, UniProt P50991 2-539, looked up) T-complex protein 1 subunit …: PENVAPRSGATAGAAGGRGKGAYQDRDKPAQIRFSNISAAKAVADAIRTSLGPKGMDKMIQDGKGDVTITNDGATILKQMQVLHPAARMLVELSKAQDIEAGDGTTSVVIIAGSLLDSCTKLLQKGIHPTIISESFQKALEKGIEILTDMSRPVELSDRETLLNSATTSLNSKVVSQYSSLLSPMSVNAVMKVIDPATATSVDLRDIKIVKKLGGTIDDCELVEGLVLTQKVSNSGITRVEKAKIGLIQFCLSAPKTDMDNQIVVSDYAQMDRVLREERAYILNLVKQIKKTGCNVLLIQKSILRDALSDLALHFLNKMKIMVIKDIEREDIEFICKTIGTKPVAHIDQFTADMLGSAELAEEVNLNGSGKLLKITGCASPGKTVTIVVRGSNKLVIEEAERSIHDALCVIRCLVKKRALIAGGGAPEIELALRLTEYSRTLSGMESYCVRAFADAMEVIPSTLAENAGLNPISTVTELRNRHAQGEKTAGINVRKGGISNILEELVVQPLLVSVSALTLATETVRSILKIDDVVNTR | 0
5 | K2C1B_HUMAN (protein, UniProt Q7Z794 1-578, looked up) Keratin, type II cytoskeletal …: MSHQFSSQSAFSSMSRRVYSTSSSAGSGGGSPAVGSVCYARGRCGGGGYGIHGRGFGSRSLYNLGGSRSISINLMGRSTSGFCQGGGVGGFGGGRGFGVGSTGAGGFGGGGFGGAGFGTSNFGLGGFGPYCPPGGIQEVTINQSLLEPLHLEVDPEIQRIKTQEREQIMVLNNKFASFIDKVRFLEQQNQVLQTKWELLQQVNTSTGTNNLEPLLENYIGDLRRQVDLLSAEQMRQNAEVRSMQDVVEDYKSKYEDEINKRTGSENDFVVLKKDVDAAYVSKVDLESRVDTLTGEVNFLKYLFLTELSQVQTHISDTNVILSMDNNRSLDLDSIIDAVRTQYELIAQRSKDEAEALYQTKYQELQITAGRHGDDLKNSKMEIAELNRTVQRLQAEISNVKKQIEQMQSLISDAEERGEQALQDAWQKLQDLEEALQQSKEELARLLRDYQAMLGVKLSLDVEIATYRQLLEGEESRMSGELQSHVSISVQNSQVSVNGGAGGGGSYGSGGYGGGSGGGYGGGRSYRGGGARGRSGGGYGSGCGGGGGSYGGSGRSGRGSSRVQIIQTSTNTSHRRILE | 4
6 | CATA_HUMAN (protein, UniProt P04040 2-527, looked up) Catalase: ADSRDPASDQMQHWKEQRAAQKADVLTTGAGNPVGDKLNVITVGPRGPLLVQDVVFTDEMAHFDRERIPERVVHAKGAGAFGYFEVTHDITKYSKAKVFEHIGKKTPIAVRFSTVAGESGSADTVRDPRGFAVKFYTEDGNWDLVGNNTPIFFIRDPILFPSFIHSQKRNPQTHLKDPDMVWDFWSLRPESLHQVSFLFSDRGIPDGHRHMNGYGSHTFKLVNANGEAVYCKFHYKTDQGIKNLSVEDAARLSQEDPDYGIRDLFNAIATGKYPSWTFYIQVMTFNQAETFPFNPFDLTKVWPHKDYPLIPVGKLVLNRNPVNYFAEVEQIAFDPSNMPPGIEASPDKMLQGRLFAYPDTHRHRLGPNYLHIPVNCPYRARVANYQRDGPMCMQDNQGGAPNYYPNSFGAPEQQPSALEHSIQYSGEVRRFNTANDDNVTQVRAFYVNVLNEEQRKRLCENIAGHLKDAQIFIQKKAVKNFTEVHPDYGSHIQALLDKYNAEKPKNAIHTFVQSGSHLAAREKANL | 2
7 | CLPB_HUMAN (protein, UniProt Q9H078 37-707, looked up) Mitochondrial disaggregase: VTTGSLGEPQWLRVATGGRPGTSPALFSGRGAATGGRQGGRFDTKCLAAATWGRLPGPEETLPGQDSWNGVPSRAGLGMCALAAALVVHCYSKSPSNKDAALLEAARANNMQEVSRLLSEGADVNAKHRLGWTALMVAAINRNNSVVQVLLAAGADPNLGDDFSSVYKTAKEQGIHSLEDGGQDGASRHITNQWTSALEFRRWLGLPAGVLITREDDFNNRLNNRASFKGCTALHYAVLADDYRTVKELLDGGANPLQRNEMGHTPLDYAREGEVMKLLRTSEAKYQEKQRKREAEERRRFPLEQRLKEHIIGQESAIATVGAAIRRKENGWYDEEHPLVFLFLGSSGIGKTELAKQTAKYMHKDAKKGFIRLDMSEFQERHEVAKFIGSPPGYVGHEEGGQLTKKLKQCPNAVVLFDEVDKAHPDVLTIMLQLFDEGRLTDGKGKTIDCKDAIFIMTSNVASDEIAQHALQLRQEALEMSRNRIAENLGDVQISDKITISKNFKENVIRPILKAHFRRDEFLGRINEIVYFLPFCHSELIQLVNKELNFWAKRAKQRHNITLLWDREVADVLVDGYNVHYGARSIKHEVERRVVNQLAAAYEQDLLPGGCTLRITVEDSDKQLLKSPELPSPQAEKRLPKLRLEIIDKDSKTRRLDIRAPLHPEKVCNTI | 2
8 | PDIP3_HUMAN (protein, UniProt Q9BY77 2-421, looked up) Polymerase delta-interacting …: ADISLDELIRKRGAAAKGRLNARPGVGGVRSRVGIQQGLLSQSTRTATFQQRFDARQKIGLSDARLKLGVKDAREKLLQKDARFRIKGKVQDAREMLNSRKQQTTVPQKPRQVADAREKISLKRSSPAAFINPPIGTVTPALKLTKTIQVPQQKAMAPLHPHPAGMRINVVNNHQAKQNLYDLDEDDDGIASVPTKQMKFAASGGFLHHMAGLSSSKLSMSKALPLTKVVQNDAYTAPALPSSIRTKALTNMSRTLVNKEEPPKELPAAEPVLSPLEGTKMTVNNLHPRVTEEDIVELFCVCGALKRARLVHPGVAEVVFVKKDDAITAYKKYNNRCLDGQPMKCNLHMNGNVITSDQPILLRLSDSPSMKKESELPRRVNSASSSNPPAEVDPDTILKALFKSSGASVTTQPTEFKIKL | 1
9 | ERP44_HUMAN (protein, UniProt Q9BS26 30-406, looked up) Endoplasmic reticulum …: EITSLDTENIDEILNNADVALVNFYADWCRFSQMLHPIFEEASDVIKEEFPNENQVVFARVDCDQHSDIAQRYRISKYPTLKLFRNGMMMKREYRGQRSVKALADYIRQQKSDPIQEIRDLAEITTLDRSKRNIIGYFEQKDSDNYRVFERVANILHDDCAFLSAFGDVSKPERYSGDNIIYKPPGHSAPDMVYLGAMTNFDVTYNWIQDKCVPLVREITFENGEELTEEGLPFLILFHMKEDTESLEIFQNEVARQLISEKGTINFLHADCDKFRHPLLHIQKTPADCPVIAIDSFRHMYVFGDFKDVLIPGKLKQFVFDLHSGKLHREFHHGPDPTDTAPGEQAQDVASSPPESSFQKLAPSEYRYTLLRDRDEL | 0.5
10 | LAP2A_HUMAN (protein, UniProt P42166 2-694, looked up) Lamina-associated polypeptide …: PEFLEDPSVLTKDKLKSELVANNVTLPAGEQRKDVYVQLYLQHLTARNRPPLPAGTNSKGPPDFSSDEEREPTPVLGSGAAAAGRSRAAVGRKATKKTDKPRQEDKDDLDVTELTNEDLLDQLVKYGVNPGPIVGTTRKLYEKKLLKLREQGTESRSSTPLPTISSSAENTRQNGSNDSDRYSDNEEGKKKEHKKVKSTRDIVPFSELGTTPSGGGFFQGISFPEISTRPPLGSTELQAAKKVHTSKGDLPREPLVATNLPGRGQLQKLASERNLFISCKSSHDRCLEKSSSSSSQPEHSAMLVSTAASPSLIKETTTGYYKDIVENICGREKSGIQPLCPERSHISDQSPLSSKRKALEESESSQLISPPLAQAIRDYVNSLLVQGGVGSLPGTSNSMPPLDVENIQKRIDQSKFQETEFLSPPRKVPRLSEKSVEERDSGSFVAFQNIPGSELMSSFAKTVVSHSLTTLGLEVAKQSQHDKIDASELSFPFHESILKVIEEEWQQVDRQLPSLACKYPVSSREATQILSVPKVDDEILGFISEATPLGGIQAASTESCNQQLDLALCRAYEAAASALQIATHTAFVAKAMQADISQAAQILSSDPSRTHQALGILSKTYDAASYICEAAFDEVKMAAHTMGNATVGRRYLWLKDCKINLASKNKLASTPFKGGTLFGGEVCKVIKKRGNKH | 0
11 | SNW1_HUMAN (protein, UniProt Q13573 2-536, looked up) SNW domain-containing protein …: ALTSFLPAPTQLSQDQLEAEEKARSQRSRQTSLVSSRREPPPYGYRKGWIPRLLEDFGDGGAFPEIHVAQYPLDMGRKKKMSNALAIQVDSEGKIKYDAIARQGQSKDKVIYSKYTDLVPKEVMNADDPDLQRPDEEAIKEITEKTRVALEKSVSQKVAAAMPVRAADKLAPAQYIRYTPSQQGVAFNSGAKQRVIRMVEMQKDPMEPPRFKINKKIPRGPPSPPAPVMHSPSRKMTVKEQQEWKIPPCISNWKNAKGYTIPLDKRLAADGRGLQTVHINENFAKLAEALYIADRKAREAVEMRAQVERKMAQKEKEKHEEKLREMAQKARERRAGIKTHVEKEDGEARERDEIRHDRRKERQHDRNLSRAAPDKRSKLQRNENRDISEVIALGVPNPRTSNEVQYDQRLFNQSKGMDSGFAGGEDEIYNVYDQAWRGGKDMAQSIYRPSKNLDKDMYGDDLEARIKTNRFVPDKEFSGSDRRQRGREGPVQFEEDPFGLDKFLEEAKQHGGSKRPSDSSRPKEHEHEGKKRRKE | 2
